Results on one substance are retold here after patent US20090232783.

The target in this series is Ferritin-H (expression plasmid pcEXV-1) (Homo sapiens) (UniProt P02794). Kind of series: cell_activity. Conditions: CV-1 cells, EKLF-stimulated CAT reporter.
Chain of Ferritin-H (expression plasmid pcEXV-1) (Homo sapiens) (P02794 2-183): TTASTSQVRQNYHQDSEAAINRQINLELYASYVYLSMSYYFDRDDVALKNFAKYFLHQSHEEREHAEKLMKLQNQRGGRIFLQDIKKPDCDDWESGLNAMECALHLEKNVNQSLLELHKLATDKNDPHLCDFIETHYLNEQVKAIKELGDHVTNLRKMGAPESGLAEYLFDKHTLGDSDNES

“beta-globin -610/+20 promoter in CAT reporter” returned an activity of 62 % repression.
